From the supplement of paper PMC7877785
± gives the uncertainty stated by the source.

Assay: self-splicing fitness, log relative to wild type (ln ratio); higher = more splicing; Tetrahymena group I intron in knt gene, E. coli kanamycin selection, DiMSum; sequences stand for … in CUCUCU…GGAGGGAAAAGUUAUCAGGCAUGCACCUGGUAGCUAGUCUUUAAACCAAUAGAUUGCAUCGGUUUAAAAGGCAAGACCGUCAAAUUGCGGGAAAGGGGUCAACAGCCGUUCAGUACCAAGUCUCAGGGGAAACUUUGAGAUGGCCUUGCAAAGGGUAUGGUAAUAAGCUGACGGACAUGGUCCUAACCACGCAGCCAAGUCCUAAGUCAACAGAUCUUCUGUUGAUAUGGAUGCAGUUCACAGACUAAAUGUCGGUCGGGGAAGAUGUAUUCUUCUCAUAAGAUAUAGUCGGACCUCUCCUUAAUGGGAGCUAGCGGAUGAAGUGAUGCAACACUGGAGCCGCUGGGAACUAAUUUGUAUGCGAAAGUAUAUUGAUUAGUUUUGGAGUACUCGUGGUCG
How it was run: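 Pooled colonies went to amplicon sequencing on an Illumina HiSeq 2500 after six replicate transformations. The plates were LB agar with 100 μg/mL carbenicillin, 50 μM IPTG and 0.2% rhamnose, with or without 25 μg/mL kanamycin, incubated overnight at 37°C or 30°C. The E. coli BL21(DE3) library had all eight P1ex-region intron nucleotides randomised, the intron placed in the knt kanamycin-resistance gene on pET-22b(+). DiMSum fitness is the error-weighted combination of replicate fold changes, kanamycin against none, normalised to wild type.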

Sequence | self-splicing fitness (ln) (30 °C) | self-splicing fitness (ln) (37 °C)
CUAAAGCAAUAUUACGGAUA | -3.45 ± 0.19 | -2.36 ± 0.2
ACACAGCAAUAUUACGCCUA | -0.959 ± 0.065 | -0.392 ± 0.067
UUUCAGCAAUAUUACGGAGC | -3.25 ± 0.36 | -3.28 ± 0.43
CAAUAGCAAUAUUACGACCU | -3.2 ± 0.24 | -0.203 ± 0.2
GAGAAGCAAUAUUACGUGAG | -1.32 ± 0.058 | -1.57 ± 0.1
UAUUAGCAAUAUUACGCAUG | -0.961 ± 0.081 | -0.197 ± 0.11
UUGCAGCAAUAUUACGCUAA | -1.12 ± 0.16 | -0.551 ± 0.16
CCACAGCAAUAUUACGAGAC | -3.7 ± 0.2 | -3.01 ± 0.23
GCGUAGCAAUAUUACGCACU | -3.02 ± 0.24 | 0.255 ± 0.2
GAUUAGCAAUAUUACGCUCG | -1.11 ± 0.12 | -0.397 ± 0.15
ACGCAGCAAUAUUACGUCAC | -4.13 ± 0.39 | -2.54 ± 0.19
UCCGAGCAAUAUUACGCGGU | -3.33 ± 0.26 | -1.58 ± 0.17
AGUGAGCAAUAUUACGGGCA | -1.22 ± 0.3 | -1.73 ± 0.15
GAUUAGCAAUAUUACGUUUG | -2.64 ± 0.15 | -0.801 ± 0.16
CGGCAGCAAUAUUACGUGCG | -3 ± 0.16 | -2.54 ± 0.16
UACAAGCAAUAUUACGGGUC | -3.32 ± 0.16 | -2.78 ± 0.16
AGCAAGCAAUAUUACGCCGC | -2.89 ± 0.45 | -2.68 ± 0.45
ACGGAGCAAUAUUACGUCCC | -1.47 ± 0.25 | -0.893 ± 0.2
AGUUAGCAAUAUUACGCCGU | -1.15 ± 0.099 | -0.939 ± 0.14
UACAAGCAAUAUUACGAAGG | -2.52 ± 0.11 | -1.38 ± 0.12
AUUUAGCAAUAUUACGGCCA | -0.814 ± 0.21 | -0.925 ± 0.23
GUAUAGCAAUAUUACGGCAG | -4.25 ± 0.42 | -1.5 ± 0.25
UUUGAGCAAUAUUACGUGAA | -1.97 ± 0.17 | -1.82 ± 0.17
CUAUAGCAAUAUUACGAUUA | -3.05 ± 0.29 | -0.967 ± 0.19
AGUCAGCAAUAUUACGGCUU |  | -1.91 ± 0.29
UGGCAGCAAUAUUACGGGUU | -3.09 ± 0.14 | -2.45 ± 0.14

Sequence | self-splicing fitness (ln) (30 °C) | self-splicing fitness (ln) (37 °C)
AAAUAGCAAUAUUACGCCCA | -0.102 ± 0.18 | -0.392 ± 0.17
CGCAAGCAAUAUUACGAAGA | -2.75 ± 0.21 | -1.73 ± 0.17
GCCUAGCAAUAUUACGGAGC | -2.44 ± 0.13 | -1.43 ± 0.1
CAUGAGCAAUAUUACGGGUU | -3.04 ± 0.1 | -3.05 ± 0.16
AGAAAGCAAUAUUACGCUAU | -2.98 ± 0.18 | -1.62 ± 0.18
UUGAAGCAAUAUUACGUCGG | 0.235 ± 0.075 | -0.024 ± 0.084
UCGCAGCAAUAUUACGCCAA | -1.37 ± 0.16 | -1.23 ± 0.22
AUUGAGCAAUAUUACGGACA | -2.68 ± 0.31 | 
ACGAAGCAAUAUUACGUUGA | -2.14 ± 0.17 | -1.22 ± 0.12
AUGAAGCAAUAUUACGUGUU | -1.64 ± 0.063 | -1.64 ± 0.078
ACACAGCAAUAUUACGAACA | -1.69 ± 0.082 | -1.18 ± 0.079
UAUAAGCAAUAUUACGGUUA | 0.0292 ± 0.084 | 0.311 ± 0.095
GCCAAGCAAUAUUACGAGUG | -2.32 ± 0.087 | -1.72 ± 0.093
UGAGAGCAAUAUUACGCGGU |  | -0.929 ± 0.39
GUACAGCAAUAUUACGGUGC | -3.12 ± 0.15 | -2.22 ± 0.18
AGAAAGCAAUAUUACGCGAG | -1.28 ± 0.11 | -0.453 ± 0.13
CGAUAGCAAUAUUACGAGCG | -0.984 ± 0.12 | -0.453 ± 0.13
GGCUAGCAAUAUUACGUACU | -0.354 ± 0.077 | 0.312 ± 0.11
UAAAAGCAAUAUUACGCACA | -0.0521 ± 0.12 | 0.516 ± 0.16
GCGAAGCAAUAUUACGAUAC | -1.99 ± 0.17 | -0.487 ± 0.15
GCCUAGCAAUAUUACGGCAG | -2.72 ± 0.19 | -2.18 ± 0.42
UGCGAGCAAUAUUACGCUUU | -2.38 ± 0.15 | -3.02 ± 0.28
AGAAAGCAAUAUUACGUAGU | -2.98 ± 0.15 | -1.55 ± 0.1
UUUAAGCAAUAUUACGGCGA | 0.000504 ± 0.075 | 0.503 ± 0.1
UCGGAGCAAUAUUACGUUCG | -1.19 ± 0.17 | -1.27 ± 0.27
CUCGAGCAAUAUUACGCUUU | -4.13 ± 0.46 | -2.31 ± 0.31

Sequence | self-splicing fitness (ln) (30 °C) | self-splicing fitness (ln) (37 °C)
UACUAGCAAUAUUACGGUUG | -2.18 ± 0.081 | -1.06 ± 0.11
UUUAAGCAAUAUUACGAGAA | -1.62 ± 0.33 | -0.298 ± 0.28
UUGGAGCAAUAUUACGGUGC | -1.64 ± 0.31 | 
AGUUAGCAAUAUUACGCACC | -1.35 ± 0.15 | -0.000166 ± 0.19
CGUUAGCAAUAUUACGAGCG | -3.69 ± 0.21 | -2.63 ± 0.21
GGAAAGCAAUAUUACGUACC | -2.13 ± 0.46 | -2.35 ± 0.49
UGCCAGCAAUAUUACGUGGA | -3.33 ± 0.18 | -1.71 ± 0.13
CUACAGCAAUAUUACGCACG | -0.609 ± 0.07 | 0.378 ± 0.08
CUGGAGCAAUAUUACGGUGU | -4.16 ± 0.36 | -2.02 ± 0.2
AGCAAGCAAUAUUACGGCUG | -0.939 ± 0.077 | -1.4 ± 0.13
CCAAAGCAAUAUUACGCCCC |  | -0.985 ± 0.44
UCACAGCAAUAUUACGCAUU | -2.93 ± 0.22 | 
CAGGAGCAAUAUUACGACCU | -1.36 ± 0.13 | -0.563 ± 0.17
CGUAAGCAAUAUUACGCACC |  | -0.957 ± 0.39
ACACAGCAAUAUUACGGCCG | -0.675 ± 0.095 | -0.395 ± 0.12
ACCGAGCAAUAUUACGUUCU | -2.38 ± 0.074 | -1.01 ± 0.074
GUCGAGCAAUAUUACGUUAC | -3.38 ± 0.22 | -1.49 ± 0.27
UUUCAGCAAUAUUACGAGAU |  | -2.72 ± 0.48
UCAGAGCAAUAUUACGCAAU | -2.77 ± 0.24 | -3.06 ± 0.35
CACCAGCAAUAUUACGCUAG | -1.49 ± 0.068 | -0.153 ± 0.079
AAGCAGCAAUAUUACGGCUG | -2.92 ± 0.12 | -2.75 ± 0.16
UGGUAGCAAUAUUACGUUAA | -3.27 ± 0.21 | -1.78 ± 0.17
GGGGAGCAAUAUUACGACCA | -0.254 ± 0.14 | 0.709 ± 0.23
GUGGAGCAAUAUUACGCUUU | -3.84 ± 0.32 | -2.41 ± 0.27
GCCGAGCAAUAUUACGGUGA | -1.49 ± 0.088 | -0.176 ± 0.095
